Experimental data reported in patent publication US20190338002A1 (Pieris, published 2019).
Where a chain is given by its changes, count along the chain named.

T1: human beta CGRP (SEQ ID NO: 81) (human, not fully specified)
T1 peptide: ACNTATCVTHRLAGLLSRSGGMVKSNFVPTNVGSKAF

T2: human alpha CGRP (SEQ ID NO: 80) (human, not fully specified)
T2 peptide: T1 peptide with N3D, M22V, S25N

T3: rat beta CGRP (SEQ ID NO: 83) (rat, not fully specified)
T3 construct: also called rat βCGRP; rat β-CGRP
T3 peptide: T1 peptide with A1S, M22V, S25D

T4: rat alpha CGRP (SEQ ID NO: 82) (rat)
T4 construct: also called rat αCGRP; rat α-CGRP
T4 peptide: T1 peptide with A1S, M22V, S25D, K35E

B1: cysteine-free lipocalin mutein SEQ ID NO: 31 (designed binder)
chain: QDSTSDLIPAPPLSKVPLQQNFQDNQFQGKWYVVGWAGNTLLREDKDPIKMQAMIYELKEDKSYNVTWVYFADKKRNYHIETFVPGSQPGEFTLGTIKSYPGETPILVRVVSTNYNQHAMVFFKGVNQNREIFEIVLYGRTKELTNELKENFIRFSKSLGLPENHIVFPVPIDQFIDGSAWSHPQFEK
notes: biotinylated by NHS chemistry for capture in SPR
B2: cysteine-free lipocalin mutein SEQ ID NO: 35 (designed binder)
chain: B1 chain with R76V, F175Y
notes: as for B1
B3: cysteine-free lipocalin mutein SEQ ID NO: 40 (designed binder)
chain: B1 chain with R76F, F175D
notes: as for B1
B4: cysteine-free lipocalin mutein SEQ ID NO: 38 (designed binder)
chain: B1 chain with F175V
notes: as for B1
B5: cysteine-free lipocalin mutein SEQ ID NO: 32 (designed binder)
chain: B1 chain with R76M, F175Y
notes: as for B1
B6: cysteine-free lipocalin mutein SEQ ID NO: 34 (designed binder)
chain: B1 chain with R76I, F175E
notes: as for B1
B7: cysteine-free lipocalin mutein SEQ ID NO: 39 (designed binder)
chain: B1 chain with R76K, F175D
notes: as for B1
B8: cysteine-free lipocalin mutein SEQ ID NO: 37 (designed binder)
chain: B1 chain with R76N, F175L
notes: as for B1
B9: cysteine-free lipocalin mutein SEQ ID NO: 33 (designed binder)
chain: B1 chain with R76L, F175W
notes: as for B1
B10: cysteine-free lipocalin mutein SEQ ID NO: 36 (designed binder)
chain: B1 chain with F175W
notes: as for B1
B11: lipocalin mutein SEQ ID NO: 7 (designed binder)
chain: QDSTSDLIPAPPLSKVPLQQNFQDNQFHGKWYVVGWAGNTLLREDKDPIKMQATIYELKEDKSYNVTWVYFSEKRCNYHIETSVPGSQPGEFTLGTIKSYPGETSILVRVVSTNYNQHAMVFFKGVSQNREIFEITLYGRTKELTSELKENFIRFSKSLGLPENHIVFPVPIDQCIDGSAWSHPQFEK
notes: as for B1
B12: lipocalin mutein SEQ ID NO: 28 (designed binder)
chain: B11 chain with T54I, K62R, R75K, S83F, S105P, V111M, S127N, T136I, S146N
notes: as for B1
B13: lipocalin mutein SEQ ID NO: 8 (designed binder)
chain: B11 chain with L42R, D47N, I49T, R75K
notes: as for B1
B14: lipocalin mutein SEQ ID NO: 13 (designed binder)
chain: QDSTSDLIPAPPLSKVPLQQNFQDNQFHGKWYVVGRAGNEELREDKDPQKMEATIYELKEDKSYNVTDVGFSEKKCIYVIHTFVPGSQPGEFTLGNIKSYPGVTSALVRVVSTNYNQHAMVFFKVVKQNRELFEITLYGRTKELTSELKENFIRFSKSLGLPENHIVFPVPIDQCIDGSAWSHPQFEK
notes: as for B1
B15: lipocalin mutein SEQ ID NO: 22 (designed binder)
chain: B14 chain with E40D, E41A, Q49E, F71L, S72V, E73Q, I77M, S87G, F123V, V125L
notes: as for B1
B16: lipocalin mutein SEQ ID NO: 21 (designed binder)
chain: B14 chain with E40D, E41A, Q49E, S72V, E73Q, I77M, V108I, S112N, F123V, V125L
notes: as for B1
B17: lipocalin mutein SEQ ID NO: 16 (designed binder)
chain: B14 chain with E40D, Q49E, S72V, E73Q, I77M, A106G, K127R
notes: as for B1
B18: lipocalin mutein SEQ ID NO: 9 (designed binder)
chain: B11 chain with N65D, F71L, R75K, V126M, T145A
notes: as for B1
B19: lipocalin mutein SEQ ID NO: 10 (designed binder)
chain: B11 chain with D47N, I49T, V66A, F71L, R75K, I97T, S105P
notes: as for B1
B20: lipocalin mutein SEQ ID NO: 12 (designed binder)
chain: B11 chain with I49P, K62R, R75K, K98Q, Y100H, S105P, V126M, S127G
notes: as for B1

Target: T1, human beta CGRP (SEQ ID NO: 81)
Assay: cell-based or functional assay

Binder | cAMP assay IC50, SK-N-MC cells [nM]
B1 | 1.64
B2 | 0.27
B3 | 0.42
B4 | 3.16
B5 | 0.26
B6 | 0.29
B7 | 1.03
B8 | 0.77
B9 | 0.24
B10 | 0.81

Target: T2, human alpha CGRP (SEQ ID NO: 80)
Assay: cell-based or functional assay

Binder | cAMP assay IC50, SK-N-MC cells [nM]
B1 | 0.19
B2 | 0.15
B3 | 0.18
B4 | 0.21
B5 | 0.17
B6 | 0.12
B7 | 0.21
B8 | 0.16
B9 | 0.14
B10 | 0.25

Target: T1, human beta CGRP (SEQ ID NO: 81)
Assay: SPR as in Example 5
Description: (§1) The Biotin CAPture Kit (GE Healthcare) was used to immobilize biotinylated lipocalin muteins to a chip surface. Muteins were biotinylated using standard NHS chemistry. Undiluted Biotin CAPture Reagent (streptavidin conjugated with ss-DNA oligo) was captured on a Sensor Chip CAP with the pre-immobilized complementary ss-DNA oligo. Thereafter, biotinylated muteins at 1 μg/mL were applied for 300 s at a flow rate of 5 μL/min.
(§2) CGRP species were applied in three concentrations of 30 nM, 3 nM and 0.3 nM at a flow rate of 30 μL/min or in a single concentration of 25 nM per cycle as shown in FIG. 2. The dilutions were injected with association times of 180 s and dissociation times of 5400 sec to obtain ka and kd information. Regeneration of the chip surface was achieved by injecting 6 M Guanidinium-HCl+0.25 M NaOH (120 s) with a flow rate of 10 μL/min. Injection of regeneration solutions was followed by an extra wash step with HBS-EP+(1×; BR-1006-69; GE Healthcare) running buffer and a stabilization period of 120 s.

Binder | Kd [nM]
B1 | 0.043
B2 | 0.017
B3 | 0.023
B4 | 0.026
B5 | 0.021
B6 | 0.025
B7 | 0.034
B8 | 0.023
B9 | 0.018
B10 | 0.022

Target: T2, human alpha CGRP (SEQ ID NO: 80)
Assay: SPR as in Example 5
Description: as §1, §2

Binder | Kd [nM]
B1 | 0.033
B2 | 0.045
B3 | 0.07
B4 | 0.059
B5 | 0.034
B6 | 0.041
B7 | 0.062
B8 | 0.055
B9 | 0.034
B10 | 0.046

Target: T1, human beta CGRP (SEQ ID NO: 81)
Assay: SPR, 37 C, mutein captured, CGRP analyte
Description: as §1, §2
(§3) The data were double-referenced by subtraction of the corresponding signals measured for the control channel (loaded with Biotin CAPture reagent only) and by subtraction of buffer injections from the binding responses. Association rate constant ka and dissociation rate constant kd for the binding reaction were determined using Biacore T200 Evaluation Software V2.0 for data processing and kinetic fitting. The data were globally fit with 1:1 binding model.

Binder | Kd [nM] | koff [s⁻¹] | kon [M⁻¹ s⁻¹]
B11 | 0.036 | 0.000188 | 5.21e+06
B12 | 0.014 | 3.41e-05 | 2.52e+06
B13 | 0.143 | 0.000529 | 3.7e+06
B14 | 0.031 | 0.000366 | 1.18e+07
B15 | 0.003 | 9.32e-06 | 2.7e+06
B16 | 0.004 | 8.74e-06 | 2.36e+06
B17 | 0.036 | 0.000364 | 1.01e+07
B18 | 0.027 | 0.000181 | 6.8e+06
B19 | 0.076 | 0.000162 | 2.14e+06
B20 | 0.095 | 0.000104 | 1.1e+06

Target: T2, human alpha CGRP (SEQ ID NO: 80)
Assay: SPR, 37 C, mutein captured, CGRP analyte
Description: as §1, §2, §3

Binder | Kd [nM] | koff [s⁻¹] | kon [M⁻¹ s⁻¹]
B11 | 0.067 | 0.000249 | 3.74e+06
B12 | 0.031 | 4.99e-05 | 1.59e+06
B13 | 0.288 | 0.000595 | 2.07e+06
B14 | 0.075 | 0.000436 | 5.82e+06
B15 | 0.009 | 1.56e-05 | 1.76e+06
B16 | 0.014 | 1.71e-05 | 1.21e+06
B17 | 0.052 | 0.000259 | 5.02e+06
B18 | 0.044 | 0.000257 | 5.88e+06
B19 | 0.163 | 0.000205 | 1.26e+06
B20 | 0.15 | 0.000162 | 1.08e+06

Target: T3, rat beta CGRP (SEQ ID NO: 83)
Assay: SPR, 37 C, mutein captured, CGRP analyte
Description: as §1, §2, §3

Binder | Kd [nM] | koff [s⁻¹] | kon [M⁻¹ s⁻¹]
B11 | 0.091 | 0.000276 | 3.04e+06
B12 | 0.032 | 5.48e-05 | 1.72e+06
B13 | 0.349 | 0.000636 | 1.82e+06
B14 | 0.111 | 0.00035 | 3.16e+06
B15 | 0.013 | 2.02e-05 | 1.6e+06
B16 | 0.018 | 2.36e-05 | 1.34e+06
B17 | 0.097 | 0.000229 | 2.37e+06
B18 | 0.075 | 0.000275 | 3.68e+06
B19 | 0.206 | 0.000224 | 1.08e+06
B20 | 0.176 | 0.000205 | 1.17e+06

Target: T4, rat alpha CGRP (SEQ ID NO: 82)
Assay: SPR, 37 C, mutein captured, CGRP analyte
Description: as §1, §2, §3

Binder | Kd [nM] | koff [s⁻¹] | kon [M⁻¹ s⁻¹]
B11 | 0.3 | 0.000313 | 1.04e+06
B12 | 0.049 | 6.88e-05 | 1.41e+06
B13 | 1.14 | 0.000837 | 734000
B14 | 0.28 | 0.000525 | 1.85e+06
B15 | 0.033 | 3.05e-05 | 931000
B16 | 0.053 | 3.7e-05 | 703000
B17 | 0.28 | 0.000398 | 1.41e+06
B18 | 0.26 | 0.000318 | 1.22e+06
B19 | 0.55 | 0.000307 | 559000
B20 | 0.45 | 0.000299 | 661000
